Results on four molecules are retold here after patent US20250034275A1 (CHIA TAI TIANQING PHARMACEUTICAL GROUP, published 2025).

Assay [1] addresses T1, human Trop-2 (on the surface of human cell lines) (human, UniProt P09758 27-323).
T1 construct: Endogenous Trop-2 on NCI-H322, Capan-1, PC-3, HUVEC, OVCAR-3, HCC38 and HCC1806 cells; also called TACSTD2
T1 sequence: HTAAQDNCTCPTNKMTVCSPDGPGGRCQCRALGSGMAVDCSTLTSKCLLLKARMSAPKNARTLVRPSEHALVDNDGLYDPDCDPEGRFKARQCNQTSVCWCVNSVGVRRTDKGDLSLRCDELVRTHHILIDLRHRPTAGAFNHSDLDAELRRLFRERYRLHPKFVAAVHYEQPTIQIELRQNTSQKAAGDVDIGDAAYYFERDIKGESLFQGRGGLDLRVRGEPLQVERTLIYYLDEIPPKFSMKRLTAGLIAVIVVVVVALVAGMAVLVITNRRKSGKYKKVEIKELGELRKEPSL
The experiment in a line: flow cytometry, HCC38 cells. Here is the method:
(§1) Tumor cells expressing Trop-2 were prepared into a cell suspension (0.5-1×10⁶ cells/mL) using the FACS buffer (Miltenyi Biotec, 130-091-221), and the cell suspension was added to a 96-well V-bottom plate at 100 μL/well. After centrifugation and removal of the supernatant, the test antibodies diluted with the FACS buffer to different concentrations (0.006 nM-100 nM) were each added at 50 μL/well. The mixture was incubated in the dark in a 4° C. refrigerator for 1 h. The plate was then washed 3 times with the FACS buffer by centrifugation at 300 g, and Alexa Fluor 488 goat anti-human IgG (H+L) (Bio-legend, 409304, 1:500 dilution) at working concentration was added. The mixture was incubated in the dark in a 4° C. refrigerator for 40 min. The plate was then washed 3 times with the FACS buffer by centrifugation at 300 g, the geometric mean fluorescence intensity (MFI) was measured on a Sartorius iQue3 flow cytometer, and the binding EC₅₀ values of the antibodies for tumor cells with different Trop-2 expression levels were calculated

Assay [2] has as its target T1, human Trop-2 (on the surface of human …). Briefly: cell-based or functional assay.
Assay [3] has the same target. Briefly: flow cytometry, OVCAR-3 cells. As for the experimental part: as §1
For orientation: Flow cytometry measures light scatter and fluorescence of single cells or particles in a stream.

The next assay deals with T2, Macaque Trop-2-His (macaque, UniProt P09758 27-274 (human entry)).
T2 construct: Extracellular domain of macaque Trop-2 recombinantly linked to His; also called monkey Trop-2-His protein; monkey Trop-2
T2 chain: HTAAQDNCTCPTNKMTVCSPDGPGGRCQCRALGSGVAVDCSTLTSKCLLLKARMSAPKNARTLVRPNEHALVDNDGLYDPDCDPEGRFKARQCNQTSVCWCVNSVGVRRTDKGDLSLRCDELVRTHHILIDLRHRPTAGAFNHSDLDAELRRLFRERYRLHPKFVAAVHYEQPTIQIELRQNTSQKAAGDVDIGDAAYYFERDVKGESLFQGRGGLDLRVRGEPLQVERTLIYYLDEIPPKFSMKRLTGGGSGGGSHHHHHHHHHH
The experiment in a line: ELISA, plate-coated macaque Trop-2-His. As for the experimental part:
(§2) After the liquid was discarded, 2% BSA (SIGMA, B2064-100G) diluted with PBS was added at 300 μL/well for blocking, and the mixture was incubated at 37° C. for 2 h. After the blocking was completed, the blocking buffer was discarded, the plate was washed 3 times with the PBST buffer (pH 7.4 PBS containing 0.1% tween-20), the antibody solution diluted in a gradient was added at 100 μL/well, and the mixture was incubated at 37° C. for 1 h. After the incubation was completed, the plate was washed 3 times with PBST, the goat anti-human IgG (H+L) (JacksonImmunoResearch, 109-035-098, 1:5000 dilution) was added at 100 μL/well, and the mixture was incubated at 37° C. for 1 h. After the plate was washed 3 times with PBST, a TMB chromogenic substrate (TIANGEN, PA107-01) was added at 100 μL/well. The mixture was incubated at room temperature for 10-15 min, and then 1 M H₂SO₄ was added at 50 μL/well to terminate the reaction. The absorbance values at 450 nm were taken using a microplate reader. The binding curves of antibodies for antigen were fitted using software, and the EC₅₀ values were calculated.

Assay [4] has as its target T3, human Trop-2-His (human, UniProt P09758 27-274, limits assumed).
T3 construct: by analogy with the macaque construct it is probably the extracellular domain with a His tag; also called Trop-2-His protein
T3 sequence: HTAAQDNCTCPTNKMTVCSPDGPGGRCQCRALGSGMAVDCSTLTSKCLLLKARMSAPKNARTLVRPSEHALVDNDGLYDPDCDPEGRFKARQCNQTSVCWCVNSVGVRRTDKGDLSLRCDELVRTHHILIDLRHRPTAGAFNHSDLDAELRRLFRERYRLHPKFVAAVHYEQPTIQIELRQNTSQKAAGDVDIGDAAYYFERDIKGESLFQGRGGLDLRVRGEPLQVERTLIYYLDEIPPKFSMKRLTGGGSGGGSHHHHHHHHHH
The experiment in a line: ELISA, plate-coated human Trop-2-His. Here is the method:
as §2, with “with” for “with the”
A general note: ELISA stands for enzyme-linked immunosorbent assay.

The target in assay [5] is T1, human Trop-2 (on the surface of human …). The experiment in a line: cell-based or functional assay. This is another data set of the same source.
Assay [6] shares this target. Briefly: flow cytometry, HCC1806 cells. As for the experimental part: as §1
For assay [7], the target named is T3, human Trop-2-His. Briefly: SPR (Biacore 8K), antibody captured, Trop-2-His as analyte. The source says: The affinity of antibodies for human Trop-2-His was detected in the form of antibody capturing. The antibody was affinity-captured by a CM5 (Cat. #29149603, GE) biosensor chip conjugated with an anti-human IgG antibody (from human antibody capture kit, Cat. #29234600, GE), then the antigen human Trop-2-His flowed on the surface of the chip, and a Biacore 8K instrument was used for detecting reaction signals in real time to obtain association and dissociation curves. After dissociation was completed for each assay cycle, the chip was washed clean and regenerated with a regeneration buffer, 3M MgCl₂ (from human antibody capture kit, Cat. #29234600, GE). The association and dissociation curves were collected by Biacore 8K Control Software 3.0 in real time, and the data were analyzed by Biacore Insight Evaluation Software 3.0. The data were fitted using a Langmuir 1:1 model after double subtraction (namely, in each cycle, the contrast channel signal was subtracted from the experimental channel signal, and the sample signal was subtracted from the blank signal), and the association rate constant Ka, the dissociation rate constant Kd, and the equilibrium constant KD were calculated.
On the technique in general: In SPR one partner is held on a chip, and binding of the other changes the refractive index at the surface.

B1: ch-Ab35 (antibody, human IgG1, kappa, V domains shown)
VH: EVQLQQSGPDLVRPGASVKLSCKASGYTFTSSDINWVKQRPGQGLEWIGWIYPRDGSKKYNEKFKGKATLTVDTSSSTAYMEVHSLTSEDSAVYFCATRFATVVSNYGLDPWGQGTSVTVSS
VL: AIVLTQSPAIMSASPGEKVTMTCSASSSVNYIYWYQRKPGSSPRLLIYDTSNLASGVPVRFSGSGSGTSYSLTISRMEAEDAATYYCQQWNSYPLTFGAGTKLELKR
notes: Mouse VH/VL on human IgG1 and human kappa constant regions; also called chimeric antibody of Ab35
In assay [1], B1 had an EC50 of 0.45 nM. Besides, in assay [2], the “ADCC reporter (Jurkat-CD16a v158-NFAT-luciferase), target cell H322, EC50” value (“ADCC reporter … target cell H322, EC50” below) turned out to be 0.02 nM and the “ADCC reporter (Jurkat-CD16a v158-NFAT-luciferase), target cell HCC1806, EC50” value (“ADCC reporter … target cell HCC1806, EC50” below) is 0.04 nM. The molecule also displayed an EC50 in assay [3] of 0.37 nM. For the same molecule, a half-maximal effect with Macaque Trop-2-His (EC50) was put at 0.048 nM. The molecule also registered a concentration for a half-maximal effect (EC50) with human Trop-2-His [4] of 0.043 nM. In addition, in assay [5], the “ADCC, PBMC killing (LDH), H322, EC50” value was found to be 0.01 nM; the “ADCC, PBMC killing (LDH), H322, Maximum killing (%)” value (shortened to “ADCC … H322, Maximum killing (%)”) stood at 51.9%; the “ADCC, PBMC killing (LDH), HCC1806, EC50” value was 0.02 nM; the “ADCC, PBMC killing (LDH), HCC1806, Maximum killing (%)” value (“ADCC … HCC1806, Maximum killing (%)” below) stood at 38%. Further, the concentration for a half-maximal effect (EC50) in assay [6] stood at 0.38 nM.

B2: ch-Ab21 (antibody, human IgG1, kappa, V domains shown)
VH: EVQLKQSGPGLVQPSQSLSITCTVSGFSLRNYGVHWVRQSPGKGLEWLGVIWSSGTTDYNAAFISRLSITKDNSKSQVFFKMNSLQVDDTAIYNCARDGDYDYYTMDYWGQGTSVTVSS
VL: AIVLTQSPASLAVSLGQRATISCRASKSVSTSAYSYIHWYQQKPGQPPKLLIYLTSNLESGVPARFSGSGSGTDFTLNIHPVEEEDAATYYCQHSRELPYTFGGGTKLEIKR
notes: Mouse VH/VL on human IgG1 and human kappa constant regions; also called chimeric antibody of Ab21
Take B2: the EC50 is 0.64 nM in assay [1]; 1.02 nM in assay [3]; 0.093 nM in the assay with Macaque Trop-2-His; 0.165 nM with human Trop-2-His [4]; 0.65 nM in assay [6]. Moreover, the “ADCC reporter … target cell H322, EC50” value in assay [2] is 0.04 nM. For the same molecule, in assay [2], the “ADCC reporter … target cell HCC1806, EC50” value turned out to be 0.08 nM. Also, the “ADCC, PBMC killing (LDH), H322, EC50” value in assay [5] is 0.13 nM. Further, the “ADCC … H322, Maximum killing (%)” value in assay [5] turned out to be 54%. Besides, the “ADCC, PBMC killing (LDH), HCC1806, EC50” value in assay [5] was determined as 0.03 nM. For the same molecule, in assay [5], the “ADCC … HCC1806, Maximum killing (%)” value stood at 40.3%.

B3: hz-Ab21-2.1 (antibody, human IgG1, kappa, V domains shown)
VH: EVQLVESGGGLVKPGGSLRLSCAASGFTLRNYGVHWVRQAPGKGLEWVGVIWSSGTTDYAAPVKGRFTISKDNSKNTLYLQMNSLKTEDTAVYYCTRDGDYDYYTMDYWGQGTLVTVSS
VL: EIVLTQSPATLSLSPGERATLSCRASKSVSTSAYSYIHWYQQKPGQPPRLLIYLTSNLESGIPARFSGSGSGTDFTLTISSLEPEDFAVYYCQHSRELPYTFGQGTKVEIKR
notes: Humanized antibody
B3 registered a concentration giving a half-maximal response (EC50) in assay [1] of 0.64 nM. In assay [2], the “ADCC reporter … target cell H322, EC50” value is 0.21 nM and the “ADCC reporter … target cell HCC1806, EC50” value is 0.39 nM. In the assay with human Trop-2-His [7], binding was put at a Kd of 1.38 nM, the koff amounted to 0.000559 s⁻¹ and the kon was determined as 404000 M⁻¹ s⁻¹. The EC50 in assay [3] amounted to 0.68 nM. In the assay with Macaque Trop-2-His, this molecule displayed a 50% effective concentration (EC50) of 0.064 nM. Also, a half-maximal effect with human Trop-2-His [4] (EC50) was put at 0.214 nM. In assay [5], the “ADCC, PBMC killing (LDH), H322, EC50” value was 0.02 nM; the “ADCC … H322, Maximum killing (%)” value worked out at 44.5%; the “ADCC, PBMC killing (LDH), HCC1806, EC50” value stood at 0.12 nM; the “ADCC … HCC1806, Maximum killing (%)” value is 32.2%. The molecule further returned an EC50 in assay [6] of 0.63 nM.

B4: hz-Ab21-2.2 (antibody, human IgG1, kappa, V domains shown)
VH: EVQLVESGGGLVKPGGSLRLSCAASGFTLRNYGVHWVRQAPGKGLEWVGVIWSSGTTDYNAAFISRFTISKDNSKNTLYLQMNSLKTEDTAVYYCTRDGDYDYYTMDYWGQGTLVTVSS
VL: EIVLTQSPATLSLSPGERATLSCRASKSVSTSAYSYIHWYQQKPGQPPRLLIYLTSNLESGIPARFSGSGSGTDFTLTISSLEPEDFAVYYCQHSRELPYTFGQGTKVEIKR
notes: Humanized antibody
B4 yielded a 50% effective concentration (EC50) in assay [1] of 0.66 nM. For the same molecule, in assay [2], the “ADCC reporter … target cell H322, EC50” value worked out at 0.15 nM and the “ADCC reporter … target cell HCC1806, EC50” value was 0.26 nM. In the assay with human Trop-2-His [7], this molecule showed a Kd of 1.33 nM, a koff of 0.000611 s⁻¹ and a kon of 460000 M⁻¹ s⁻¹. Moreover, the 50% effective concentration (EC50) in assay [3] worked out at 0.8 nM. Moreover, the 50% effective concentration (EC50) in the assay with Macaque Trop-2-His was 0.081 nM. In the assay with human Trop-2-His [4], this molecule displayed a 50% effective concentration (EC50) of 0.223 nM. Also, in assay [5], the “ADCC, PBMC killing (LDH), H322, EC50” value came out at 0.07 nM; the “ADCC … H322, Maximum killing (%)” value was 51.6%; the “ADCC, PBMC killing (LDH), HCC1806, EC50” value amounted to 0.18 nM; the “ADCC … HCC1806, Maximum killing (%)” value was 40.6%. In assay [6], this molecule had an EC50 of 1.18 nM.

Usually EC50 stands for the concentration giving half of the maximal effect. The low end stands for an effect from little substance, the high end for a need for much substance. The Kd is the free concentration of one partner at which half of the binding sites on the other are occupied at equilibrium, for simple one-to-one binding. A word on the koff: it is the first-order rate constant of dissociation. A low value points to slow dissociation. As usually defined, the kon is a measure of how fast the partners come together. Higher therefore signals fast association.
